Assay results from US20150080242A1 (UNIVERSITY OF MASSACHUSETTS, published 2015).

B1: OmpG-PEG2-biotin (other)
chain: GEERNDWHFNIGAMYEIENVEGYGEDMDGLAEPSVYFNAANGPWRIALAYYQEGPVDYSAGKRGTWFDRPELEVHYQFLENDDFSFGLTGGFRNYGYHYVDEPGKDTANMQRWKIAPDWDVKLTDDLRFNGWLSMYKFANDLNTTGYADTRVETETGLQYTFNETVALRVNYYLERGFNMDDSRNNGEFSTQEIRAYLPLTLGNHSVTPYTRIGLDRWSNWDWQCDIEREGHDFNRVGLFYGYDFQNGLSVSLEYAFEWQDHDEGDSDKFHYAGVGVNYSF
modifications: maleimide-PEG2-biotin on Cys 224 (D224C, loop 6)
notes: also called OmpG-PEG2-Biotin pore; OmpG-biotin

How the values were obtained:
[1] = target: OmpG-PEG2-biotin (Escherichia coli) (UniProt P76045); assay: single channel recording of one OmpG-PEG2-biotin pore in a planar lipid bilayer, dwell times of binding events
[2] = target: OmpG-PEG2-biotin (Escherichia coli) (UniProt P76045); assay: single channel recording of one OmpG-PEG2-biotin pore, inter-event intervals against mAb concentration
[3] = target: OmpG-PEG2-biotin (Escherichia coli) (UniProt P76045); assay: single channel recording of one OmpG-PEG2-biotin pore, from koff and kon
[4] = target: OmpG-PEG2-biotin (Escherichia coli) (UniProt P76045); assay: cell-based or functional assay
[5] = target: OmpG-PEG2-biotin (Escherichia coli) (UniProt P76045); assay: single channel recording of one OmpG-PEG2-biotin pore, 1 nM mAb
BSA = target: T1, BSA (UniProt P02769 25-607); assay: single channel recording in planar lipid bilayer
T1 construct: Control protein
T1 sequence (P02769 25-607 limits assumed): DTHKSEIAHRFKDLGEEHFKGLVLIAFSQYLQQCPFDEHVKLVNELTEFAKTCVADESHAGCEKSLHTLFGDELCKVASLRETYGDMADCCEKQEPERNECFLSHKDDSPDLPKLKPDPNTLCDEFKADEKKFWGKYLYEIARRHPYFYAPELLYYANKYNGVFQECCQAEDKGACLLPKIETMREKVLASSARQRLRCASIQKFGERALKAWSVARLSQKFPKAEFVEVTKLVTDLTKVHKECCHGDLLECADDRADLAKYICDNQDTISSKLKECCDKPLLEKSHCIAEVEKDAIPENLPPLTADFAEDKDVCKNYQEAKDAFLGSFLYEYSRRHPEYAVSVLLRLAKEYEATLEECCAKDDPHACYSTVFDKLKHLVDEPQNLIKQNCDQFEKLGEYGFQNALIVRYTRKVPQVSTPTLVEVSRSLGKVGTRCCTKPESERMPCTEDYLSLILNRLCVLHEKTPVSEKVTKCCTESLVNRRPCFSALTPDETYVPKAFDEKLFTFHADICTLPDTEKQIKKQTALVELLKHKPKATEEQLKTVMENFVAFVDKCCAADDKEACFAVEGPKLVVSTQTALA

| Molecule | koff [1] | kon [2] | Kd [3] | Event frequency [4] | Gating duration [4] | Inter-event duration [4] | Open probability [4] | Relative conductance of open state (%) [4] | open probability of the mAb bound state at -50 mV [4] | mean inter-event interval at 1 nM mAb [5] | binding result (BSA) |
| --- | --- | --- | --- | --- | --- | --- | --- | --- | --- | --- | --- |
| Mouse anti-biotin monoclonal antibody (MS-1048-P1, Thermo Scientific) | 0.25 s⁻¹ | 2.3e+07 M⁻¹ s⁻¹ | 11.2 nM | 201 s⁻¹ | 4.2 s | 3.67 s | 0.52 | 86.4% | 0.4 | 74.5 s | – |
| B1 | – | – | – | – | – | – | – | – | – | – | no binding (tested: 1 µM) |
